Assays:
[1] = target: saSepF-CTD G145K (S. aureus); assay: AUC
[2] = target: egSepF-CTD G163K (E. gallinarum); assay: AUC

Substance | stoichiometry N [1] | stoichiometry N [2]
saSepF-CTD G145K (domain or fragment) | 2 | 
egSepF-CTD G163K (domain or fragment) |  | 2

From paper doi:10.1101/2024.07.18.604210
